# Laboratory results: IntAct's records for PubMed 18812496
# B1: Plastid division protein PDV2 (Arabidopsis thaliana (Mouse-ear cress)), Q9XII1 (parent)
# chain: MEDEEGIGLILARATELRLKISDCIDNSSTTVSDNGDGNEDLSPGEGRKSEIIGNQDKDFDSISSEDVDEAEAERLLRIRDALEALESQLASLQNLRQRQQYEKQLALSEIDYSRKMLLEKLKEYKGKDFEVLRETTTFAGERVDYENDLLLPPYPVHPPLSLGLDNNNGYLSHLPSKKKSDANGFGSGHVRNEAEAKSPNGGSGGSSHGVIRFLGSVAKIVLPIIGVISLLSASGYGPEMRKRGASLNLFGLLPHRATRGKRTPNQCPPGKVLVIEDGEARCLVKERVEIPFDSVVAKRDVTYGYG
# partner: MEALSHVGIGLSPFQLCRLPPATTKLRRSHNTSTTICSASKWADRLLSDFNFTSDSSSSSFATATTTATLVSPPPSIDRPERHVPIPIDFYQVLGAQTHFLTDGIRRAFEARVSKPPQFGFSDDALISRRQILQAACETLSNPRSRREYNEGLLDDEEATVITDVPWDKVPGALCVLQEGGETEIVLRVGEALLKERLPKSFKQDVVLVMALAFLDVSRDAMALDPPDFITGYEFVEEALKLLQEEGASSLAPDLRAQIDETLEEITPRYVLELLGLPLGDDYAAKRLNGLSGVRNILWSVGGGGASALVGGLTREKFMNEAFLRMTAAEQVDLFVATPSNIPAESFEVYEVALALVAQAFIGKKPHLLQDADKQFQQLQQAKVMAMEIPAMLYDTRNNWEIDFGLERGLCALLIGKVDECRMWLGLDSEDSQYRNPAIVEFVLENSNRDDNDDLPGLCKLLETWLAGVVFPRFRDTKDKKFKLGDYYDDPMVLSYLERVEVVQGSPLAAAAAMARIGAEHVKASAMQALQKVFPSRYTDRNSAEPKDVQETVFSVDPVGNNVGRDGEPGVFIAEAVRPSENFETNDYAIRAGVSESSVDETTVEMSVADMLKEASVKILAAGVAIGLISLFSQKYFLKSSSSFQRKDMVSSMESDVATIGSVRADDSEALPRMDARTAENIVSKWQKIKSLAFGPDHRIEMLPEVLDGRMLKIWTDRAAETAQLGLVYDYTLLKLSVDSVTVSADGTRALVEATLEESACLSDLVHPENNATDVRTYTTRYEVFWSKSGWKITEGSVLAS
# Variants of: B1
# Conditions: with arc6_arath ARC6, Q9FIG9
row,effect of a mutation on the interaction,Variant
1,decreasing interaction,G307D
